The text below walks through data of patent publication CN105646705A.

The target of this test is 原核表达的重组人GFAP蛋白 (PET28a-GFAP, 大肠杆菌BL21表达, Ni-NTA纯化) (human) (UniProt P14136). Kind of test: direct ELISA, purified GFAP coated at 10 μg/ml, purified antibody diluted 1:200 to 1:12800, goat anti-mouse IgG-HRP, OD450.
UniProt P14136, sequence (P14136 other isoform, or with tags, fused parts or gaps): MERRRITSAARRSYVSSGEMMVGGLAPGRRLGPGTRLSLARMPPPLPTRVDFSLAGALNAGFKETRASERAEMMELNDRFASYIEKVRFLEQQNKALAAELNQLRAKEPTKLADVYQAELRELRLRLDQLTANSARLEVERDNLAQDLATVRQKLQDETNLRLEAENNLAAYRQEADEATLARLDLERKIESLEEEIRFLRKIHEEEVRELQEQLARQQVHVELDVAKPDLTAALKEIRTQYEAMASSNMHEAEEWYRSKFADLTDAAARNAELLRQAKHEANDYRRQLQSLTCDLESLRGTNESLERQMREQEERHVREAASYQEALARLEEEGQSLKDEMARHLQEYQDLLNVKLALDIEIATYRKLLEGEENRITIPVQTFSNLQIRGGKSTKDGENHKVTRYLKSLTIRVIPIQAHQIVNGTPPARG

B1: 小鼠抗人GFAP单克隆抗体 5C8 (杂交瘤细胞株5C8, CGMCC No.6915) (antibody, part only; not given: light chain variable region, V domains shown, part only)
VH: LASTATGVHSQVQLQQPGAELVRPGASVKLSCKASGYTFTSYWMNWVKQRPGQGLEWIGMINPSDSEIQYNQMFKDKATLTVDKSSSTAYIHLTSLTSEDSAVYYCARGLGRYWGQGTTLTVSPASTTPPSV
With B1, the ELISA滴度 (dilution factor (1:x)) was above 10000.
